Measurements as given in patent US20180105832A1 (FRAUNHOFER GESELLSCHAFT ZUR FOERDERUNG DER ANGEWANDTEN …, published 2018).

Molecular target: T1, Pepscan peptide 3 of CSP (amino acids 25-37) (Aspergillus flavus)
T1 peptide: YDDPDCDPGFTCR
Assay: Pepscan-ELISA

B1: Aspergillus-specific monoclonal antibody AP10 (mAbAP10) (antibody, V domains shown)
VH: DVQLVESGGGLVQPGGSRKLSCAASGFTFSSFGMHWVRQAPEKGLEWVAYINGGSGTIYYADTVKGRFTISRDNPRNTLFLQMETTSLRSEDTAMYYCARGGDDPFAYWGQGTLVTV
VL: IQMTQSPSSLSAYLGDKVTITCMASQDINNHIAWYQLKPGKGPRLLIHYTSTLHPGIPSRFSGSGSGRDYSFSISDLEPEDIATYYCLQYDNLRTFGGGTKLEIK
notes: also called CSP-specific mAbAP10
binding efficiency relative to peptide 4: 2 fold
